Substrate in this series: Nc1nc2c(c(=O)[nH]1)N[C@@H](CN(C=O)c1ccc(C(=O)N[C@@H](CCC(=O)O)C(=O)O)cc1)CN2
Description: purified protein. Format: biochemical, Apis mellifera. Conditions: dehydrogenase reaction, 200 μM NADP+, 100 mM β-mercaptoethanol, Tris/HCl pH 7.6 (pH of highest Vmax), 30°C.

A word on the Km: it is the substrate concentration at which the rate is half of its maximum.

B1: Amel_10-FTHFDH (10-formyl tetrahydrofolate dehydrogenase of A. mellifera) (Apis mellifera) (protein)
chain: AQLKVAIIGQSNFAAEVYKLLKLNGHQITGVFTIPDKGNREDPLAITAKIDNTPVFKIKSWRSKGVTLPEVLQLYKGIEVDLNVLPFCSQFIPMEVINHPRHRSICYHPSLLPRHRGASAITWTLIEGDDTAGFSIFWADDGLDTGPILLQRSCKVNSNDTLDSLYNNFLYPEGIKAMAEAVNLVAKGTAPMIPQTEEGATYDPMMNKKELQKIDWTKPAKQVHDFIRSLDSTPGAWTIIDGEEVRLFGSILWNDDQIPEHEIEVNVEDRLGIIHKDGLLIKAVDNHFVNVERMKVGTRTILASKFGQKSEDTIIEFTAEEQKMIESLKRTWEGILNMDVNEDTDFFACGAGSMDVIRLVEEVKDNLGVILQNIDVFMSPVFIQFVNKVVLTARGISTSKEIKYDAVEVQTNNMTLKFPRQLFINGEFVNGHGNPIDTINPHDETIICSVETGTVEDVDKAVKAAKKAFEEGEWSKISARERGVLLFKLADLMEEHKEELATIESIDSGAVYTLALKTHIGMSIETWRYFAGWCDKIQGSTIPITHARPNRNLTFTRKEPIGVCGLVTPWNYPLMMLSWKMAACLAAGNTVVMKPAQASPLTALKFAELTAKAGFPPGVVNIVPGNGTETGNAICEHLLIRKLGFTGSTQIGQSIMKSCANSNLKKVSLELGGKSPLVIFEDTDLQQAIKIAMSSVFFNKGENCIAAGRLFVEETIHDEFLQRIVEETKKISIGNPLDRSTAHGPQNHKAHLNKLLKFVERGVKEGAKLIYGGKRLDRPGWYFEPTIFTDVKDDMYIAKEESFGPIMVISKFSSKNIDDMIARANNTEYGLASGILTKDISKALRFAEKIEAGTVFINTYNKTDVAAPFGGFKMSGFGKDLGQEALNEYLKTKTITVEY
notes: complete ORF, N-terminal 6xHis tag kept (…... from primer), baculovirus / Hi5 insect cells, Ni-NTA, about 100 kDa
As to B1, the Km was 9.596 µM.

(Values after publication PMC10926475, “A Detoxification Enzyme for Apis mellifera Newly Characterized by Recombinant Expression: 10-Formyl Tetrahydrofolate Dehydrogenase” (Frontiers in Insect Science, 2022).)
